Data from US7338932.

Key:
[1] = biological target: T1, MUC7 acceptor peptide (Ac-CPPTPSATTPAPPSSSAPPETTAA)
T1 chain: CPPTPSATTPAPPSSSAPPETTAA

[2] = biological target: T2, EA2 acceptor peptide (PTTDSTTPAPTTK)
T2 chain: PTTDSTTPAPTTK

[3] = biological target: T3, MUC2 acceptor peptide (PTTTPISTTTMVTPTPTPTC)
T3 chain: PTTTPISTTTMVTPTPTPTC

B1: human recombinant GalNAc-T3 (enzyme source of Example 6) (protein)
chain: MERNMKNKNKMLDLMLEAVNNIKDAMPKMQIGAPVRQNIDAGERPCLQGYYTAAELKPVLDRPPQDSNAPGASGKAFKTTNLSVEEQKEKERGEAKHCFNAFASDRISLHRDLGPDTRPPECIEQKFKRCPPLPTTSVIIVFHNEAWSTLLRTVHSVLYSSPAILLKEIILVDDASVDEYLHDKLDEYVKQFSIVKIVRQRERKGLITARLLGATVATAETLTFLDAHCECFYGWLEPLLARIAENYTAVVSPDIASIDLNTFEFNKPSPYGSNHNRGNFDWSLSFGWESLPDHEKQRRKDETYPIKTPTFAGGLFSISKEYFEYIGSYDEEMEIWGGENIEMSFRVWQCGGQLEIMPCSVVGHVFRSKSPHSFPKGTQVIARNQVRLAEVWMDEYKEIFYRRNTDAAKIVKQKAFGDLSKRFEIKHRLQCKNFTWYLNNIYPEVYVPDLNPVISGYIKSVGQPLCLDVGENNQGGKPLIMYTCHGLGGNQYFEYSAQHEIRHNIQKELCLHAAQGLVQLKACTYKGHKTVVTGEQIWEIQKDQLLYNPFLKMCLSANGEHPSLVSCNPSDPLQKWILSQND
galactosyltransferase activity with UDP-Gal [1]: Muc7, 0.1 nmol/min/ml | galactosyltransferase activity with UDP-Gal [2]: EA2, 6.8 nmol/min/ml | galactosyltransferase activity with UDP-Gal [3]: Muc2, 0 nmol/min/ml
